Patent publication US20230220042A1 (SHANGHAI JIAO TONG UNIVERSITY SCHOOL OF MEDICINE, published 2023)

T1: Biotin-FcγRIIB (human, UniProt P31994 43-217, limits assumed, biotin-labelled)
T1 construct: Bought, biotin-labelled; used at 1 µg/ml for staining and sorting; also called human FcγRIIB; CD32b
T1 sequence (looked up): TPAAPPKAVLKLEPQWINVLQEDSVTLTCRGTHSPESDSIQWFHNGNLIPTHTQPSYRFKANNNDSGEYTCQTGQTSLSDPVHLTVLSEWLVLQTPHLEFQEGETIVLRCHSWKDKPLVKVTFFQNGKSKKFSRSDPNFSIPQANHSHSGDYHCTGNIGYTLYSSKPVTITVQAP


Assays:
Biotin-FcγRIIB (human) [1] = molecular target: Biotin-FcγRIIB (human) (UniProt P31994); experiment: sorting of displayed Fc library on FcγRIIB, NGS
Biotin-FcγRIIB (human) [2] = molecular target: Biotin-FcγRIIB (human) (UniProt P31994); experiment: FACS sorting of displayed Fc library on biotin-FcγRIIB, NGS; reference P271G
Biotin-FcγRIIB (human) [3] = molecular target: Biotin-FcγRIIB (human) (UniProt P31994); experiment: FACS sorting of displayed Fc library on biotin-FcγRIIB, NGS; reference G236V
Biotin-FcγRIIB (human) [4] = molecular target: Biotin-FcγRIIB (human) (UniProt P31994); experiment: FACS sorting of displayed Fc library on biotin-FcγRIIB, NGS
Biotin-FcγRIIB [5] = molecular target: T1, Biotin-FcγRIIB; experiment: FACS sorting of displayed Fc library on biotin-FcγRIIB, NGS; reference P271G
Biotin-FcγRIIB [6] = molecular target: T1, Biotin-FcγRIIB; experiment: FACS sorting of displayed Fc library on biotin-FcγRIIB, NGS
Biotin-FcγRIIB [7] = molecular target: T1, Biotin-FcγRIIB; experiment: FACS sorting of displayed Fc library on biotin-FcγRIIB, NGS; reference S298R
Biotin-FcγRIIB [8] = molecular target: T1, Biotin-FcγRIIB; experiment: FACS sorting of displayed Fc library on biotin-FcγRIIB, NGS; reference S267E

| Molecule | Enrichment factor (percentage after sorting/percentage before sorting) (Biotin-FcγRIIB (human) [1]) | Enrichment factor (after/before sorting) (Biotin-FcγRIIB [6]) | Increased factor a (enrichment factor/wild-type enrichment factor) (Biotin-FcγRIIB [6]) | Increased factor 2 c Site 2 (combined/point mutation) (Biotin-FcγRIIB [7]) | also measured |
| --- | --- | --- | --- | --- | --- |
| human IgG2 anti-mouse CD40 surface displayed antibody, Fc mutant S298A | 0.92 |  |  |  |  |
| human IgG2 anti-mouse CD40 surface displayed antibody, Fc mutant P271G/G236V |  |  |  |  | Increased factor 2 c Site 1 (combined/point mutation) (Biotin-FcγRIIB (human) [2]): 2.9; Increased factor 2 c Site 2 (combined/point mutation) (Biotin-FcγRIIB (human) [3]): 30.5; Enrichment factor (after/before sorting) (Biotin-FcγRIIB (human) [4]): 10.3; Increased factor a (enrichment factor/wild-type enrichment factor) (Biotin-FcγRIIB (human) [4]): 13.7 |
| human IgG2 anti-mouse CD40 surface displayed antibody, Fc mutant G236D | 0.84 |  |  |  |  |
| human IgG2 anti-mouse CD40 surface displayed antibody, Fc mutant P271G/S298R (antibody, name in EU numbering, as m1; positions are Eu numbers; copies: 2 + 2) light chain (with the P2A rest): DTVLTQSPALAVSPGERVTISCRASDSVSTLMHWYQQKPGQQPKLLIYLASHLESGVPARFSGSGSGTDFTLTIDPVEADDTATYYCQQSWNDPWTFGGGTKLELKRTVAAPSVFIFPPSDEQLKSGTASVVCLLNNFYPREAKVQWKVDNALQSGNSQESVTEQDSKDSTYSLSSTLTLSKADYEKHKVYACEVTHQGLSSPVTKSFNRGECGSGATNFSLLKQAGDVEENPG heavy chain: EVQLVESDGGLVQPGRSLKLPCAASGFTFSDYYMAWVRQAPTKGLEWVASISYDGSSTYYRDSVKGRFTISRDNAKSTLYLQMDSLRSEDTATYYCGRHSSYFDYWGQGVMVTVSSASTKGPSVFPLAPCSRSTSESTAALGCLVKDYFPEPVTVSWNSGALTSGVHTFPAVLQSSGLYSLSSVVTVPSSNFGTQTYTCNVDHKPSNTKVDKTVERKCCVECPPCPAPPVAGPSVFLFPPKPKDTLMISRTPEVTCVVVDVSHEDGEVQFNWYVDGVEVHNAKTKPREEQFNRTFRVVSVLTVVHQDWLNGKEYKCKVSNKGLPAPIEKTISKTKGQPREPQVYTLPPSREEMTKNQVSLTCLVKGFYPSDIAVEWESNGQPENNYKTTPPMLDSDGSFFLYSKLTVDKSRWQQGNVFSCSVMHEALHNHYTQKSLSLSPGKLEPPPSTVSNMATVAVLVVLGAAIVTGAVVAFVMKMRRRNTGGKGGDYALAPGSQTSDLSLPDCKVMVHDPHSLA |  | 16 | 21.4 | 27.4 | Increased factor 2 c Site 1 (combined/point mutation) (Biotin-FcγRIIB [5]): 4.5 |
| human IgG2 anti-mouse CD40 surface displayed antibody, Fc mutant S267E/S298R (antibody, name in EU numbering, as m1; positions are Eu numbers; copies: 2 + 2) light chain (with the P2A rest): DTVLTQSPALAVSPGERVTISCRASDSVSTLMHWYQQKPGQQPKLLIYLASHLESGVPARFSGSGSGTDFTLTIDPVEADDTATYYCQQSWNDPWTFGGGTKLELKRTVAAPSVFIFPPSDEQLKSGTASVVCLLNNFYPREAKVQWKVDNALQSGNSQESVTEQDSKDSTYSLSSTLTLSKADYEKHKVYACEVTHQGLSSPVTKSFNRGECGSGATNFSLLKQAGDVEENPG heavy chain: EVQLVESDGGLVQPGRSLKLPCAASGFTFSDYYMAWVRQAPTKGLEWVASISYDGSSTYYRDSVKGRFTISRDNAKSTLYLQMDSLRSEDTATYYCGRHSSYFDYWGQGVMVTVSSASTKGPSVFPLAPCSRSTSESTAALGCLVKDYFPEPVTVSWNSGALTSGVHTFPAVLQSSGLYSLSSVVTVPSSNFGTQTYTCNVDHKPSNTKVDKTVERKCCVECPPCPAPPVAGPSVFLFPPKPKDTLMISRTPEVTCVVVDVEHEDPEVQFNWYVDGVEVHNAKTKPREEQFNRTFRVVSVLTVVHQDWLNGKEYKCKVSNKGLPAPIEKTISKTKGQPREPQVYTLPPSREEMTKNQVSLTCLVKGFYPSDIAVEWESNGQPENNYKTTPPMLDSDGSFFLYSKLTVDKSRWQQGNVFSCSVMHEALHNHYTQKSLSLSPGKLEPPPSTVSNMATVAVLVVLGAAIVTGAVVAFVMKMRRRNTGGKGGDYALAPGSQTSDLSLPDCKVMVHDPHSLA |  | 32.8 | 43.8 | 56.2 | Increased factor 2 c Site 1 (combined/point mutation) (Biotin-FcγRIIB [8]): 1.5 |
